Experimental data from a protein production outcome set (Wang et al. 2014).

Experiment: label from the status in PepcDB records

Row | Sequence | protein production
1 | MEATNKMKVEVWSDIMCPFCYIGKRNYEAGLKQFADSNNIEIIWKSFQLDPNIPQDTAVTENVYQYLAERKGMSYEQSVQMHDSVVATAKKAGLDYNFDKAVIANSFNAHRMIQLAKTKDLGDAAEERLFYAYFTEGKNVGNSYVLIELGKDIGLTEAEVQTALTDDTYAYKVRQDVEEAQHLGVRGVPFFVFDRKYAVSGAQPPQAFLETLEKSFSEWRKEHPASPFEVSEGPSCSVDGCD | not failed
2 | MNQVEMTEFPVGKPQEALYGVASTPDGALWFTLAKGNAIGRLSPDGAVSRFPLPHADGQPTTITCGPDGRPWFTLSSANAIGRLAPDGALRMFELPRPASRPFGIAGGHDGCLWFAEMAGDRIGRITIDGDIEEYDLPVKGGYPSCMAAGRDGLMWFTLNQAGAVGSISATAAPRIFPLGAADAAPVGIASDAQGALWIAQAGNGAIARFDAGGRITEFPLHSRAARPHAIAADAAGNLWFTEWGANRIGRISEAGDLAGYELAAPGSEPHGIAIDPHGCVWAALETGRLVRLQASPRDLEHHHHHH | failed
3 | MISAGDFKNGVTFELDGQIFQVIEFQHVKPGKGAAFVRTKLKNIVTGATIEKTFNPTDKMPKAHIERKDMQYLYNDGDLYYFMDTETFEQLPLGKDKIGDALKFVKENEIVKVLSHKGNVFGIEPPNFVELEVTDTEPGFKGDTATGATKPAIVETGASIKVPLFVNKGDIIRIDTRTGEYMERV | not failed
4 | SIDSKLQTLGEQLMQGKRGAIVMIEPETGEVLCLVSSPSYDPSLLAGKDRGKNHLEMEHDRNKPLYARAIQATYPPGSTFKPAQGAIFLQEGVIRPTDAFSCYHGFPPLNNRPACHSHGSPLSLVPALATSCNAFFCWGLRAMLDNRRFYPSVQEAFEHWKNRIVGLGFGYRLGLDLPGERRGYIPNSKVYDKAYKGRWNSSTIISISIGQGEILATPLQIANLGVIIANRGRYRRPHVVKAIQGIPLDTAYTNWQNSGISPANMEYIVEGMARAVTGGTCHAANFAPGEIEVCGKTGTAENPHGKDHSAFLGFAPRNNPKVVVSVYVENGGFGAVYGVPIGRVMMEYYLREGKLSPEGEAVATKMSNTAIHYSNVF | failed
5 | MSQNVISQPVEAQQSFARAVTESLPGLLLVCAVALVASFVAPKLEAYPLFKTYLSLKDFILAIIFGIIIRNTVGVPAVFQPGLRYSTIMTKTGIVIMGSSYSLAGLVSVGAQALVFIAVFLFGTALVMMWLCRKVGMSTPLAACLAAGMSVCGVSATIAIAPAVKAKNEDMAYSIAVVLMFGLLALIAFPLIGKVFNLTPEQFGAFAGVGIVNSAQVLAAGFGFSQEAGIVAGIYNIGRVVFLPFVVLMLAIMAAAQEAEQGNEVAKINKWQMIRDKFPLFVLGFLAIVCLNTAGVLTKPEVKMAKHFMEWAFLLGFASIGLTTRLSDLRAAGLNGFLFGFGVAGLKAALALAAVLLFMS | failed
6 | MQGGRFMGNKNLIITIEREYGSGGRIVGKKLAEELGIHFYDDDILKLASEKSAVGEQFFRLADEKAGNNLLYRLGGGRKIDLHSKPSPNDKLTSPENLFKFQSEVMRELAESEPCIFVGRAAGYVLDQDEDIERLIRIFVYTDKVKKVQRVMEVDCIDEERAKRRIKKIEKERKEYYKYFTGSEWHSMKNYDLPINTTKLTLEETAELIKAYIRLKGFMD | not failed
7 | MKTLLIAWHSRTGAARQMAQALERGALAAALALEQPGQLRVRRQAASRTDAAALLAADGYLFCAPENLGSLSGAMKECFDRCYYGVLDRIQGRPYGVAISAGTDGEGAARQVERICTGWRLRAAAPPLIARSGAQTPEQIAAPKQVPADVLARCEELGGLLAATLLMGSLEHHHHHH | failed
8 | HSEPSHQSKAVVELPHKQGMARLAAGLLHPDMTIYLDAGTSTLEIVPHIIALSGMTVVTNDFGVVNALADAAHVDVIHTGGLLDHPNRSSVGGLAAATLRQLATDVAFMSTSSWDLQRGTTTPSALKVEVKQAAMQSASQTVLVATSSKY | failed
9 | MSAKRVFEKFDKNKDGKLSLDEFREVALAFSPYFTQEDIVKFFEEIDVDGNGELNADEFTSCIEKML | not failed
10 | MRRGDIGSCDRVDPSGKTLAGCDAGGDRGLGHGAFSSRAMWASDRTAARLLRPTLRQINTRLAGPPDPSISASMERAADMQTLLREIRNTPLLWMLVFVPIVLLAEAAAPHSHTLLFVLAVLAIVPLAALLSHATEAVAAKTGDAVGGLLNATLGNLTELIIAITALRAGQYMLVKASIAGAIVTNAVFMLGACLLLGGLRYHVQEYNRAGARLSSGLLLMATVALLAPSAVADLEHLPQGGGILNKLSVGISVLLIIAYALGLLFSLGTHKELFASADHGDDKEAHWPIGIAVGTLLVVTVLVALVSEIFVESVQKAAETFGMSPAFVGFIIVSLVGAAAEFAVAFGAARKDRLDMVVSIALGSASQIALFVAPALVLLSYVVGPTPMNLQFWPGAVTMVMIATVTSAFITASGRSAWFVGALMIFIYAVFALTLYVVPPAGEG | failed
11 | MHKTAFIWTDEYYNYSFPDYHPFKSLRESMTKRLLEERGAFHFITLVEPKSIPEEALQLVHSKEYIEFVKYKSKEGQGYLDDGDTPAFKGIYEAALIRVSGSVKALELIKSGEFNHTINIGGGFHHAKRNRAAGFCVFNDVALISKLGESFFSRIAIVDIDGHHADGTQELLIDDNNILKISLHMFHPNFFPGTGDVNEIGLGKGEGYTINIPLPPGTGDDGYLLAFDEIVVPAIERYKPELIILVAGGDSHFNDPLVELKLSTHGYLDVVTKIHRLVHEYSNGRLIMLGGGGYNYDATARIWTISIAEIAGIYDLEYETLHDSFSTKSSQFVMEKIRNTISLIKKIHSLN | failed
12 | MSVVDPSLIERIIRDDVRAMGAYHVPDSHGLVKLDAMENPYRLPPALRSELAARLGEVALNRYPVPSSEALRAKLKEVMQVPAGMEVLLGNGSDEIISMLALAAARPGAKVMAPVPGFVMYAMSAQFAGLEFVGVPLRADFTLDRGAMLAAMAEHQPAIVYLAYPNNPTGNLFDAADMEAIVRAAQGSVCRSLVVVDEAYQPFAQESWMSRLTDFGNLLVMRTVSKLGLAGIRLGYVAGDPQWLEQLDKVRPPYNVNVLTEATALFALEHVAVLDEQAAQLRAERSRVAEGMAAHGGVTVFPSAANFLLARVPDAAQTFDRLLARKVLIKNVSKMHPLLANCLRVTVSTPEENAQFLEAFAASLQD | not failed
13 | MTMTRERLYLFDTTLRDGQQTPGIDFSVEDKIAIAKLLDEFGMDYVEGGYPGANPTDTAFFQQKRTASAKFVAFGMTKRAGVSASNDPGLAALVQSKSDAICFVAKSWDYHVRVALGCTNEENLESIKTSVETAVASGKEAMVDCEHFFDGFKANPDYALACAKTAYDAGARWVVLCDTNGGTQPSEVRTIVAKVIASSIPGDHLGIHAHDDTGQAVANSLAAVEAGVRQIQGTLNGIGERCGNANLISIVPTLALKPAFADRFVSGISAEALTGISRLSRAFDELLNRAPEAQAPYVGASAFATKAGIHASALAKEPATYEHVPPESVGNRRRVMVSDQGGKANFLAELKRRGIEVPRDDHRLDALISVVKEREAEGYAYEGADASFELLARKMLHGLPEFFNVTSFRCMVERRFDANGNLKTVSEAIVKVEVDGEEKMSVAEGHGPVNALDIALRKDLGKYQSEIVDLELADFKVRILNGGTEAITRVLIESHDGTGARWWTVGVSENIIDASFQALMDSIIYKLMKNREMAGLVAAE | failed
14 | MTAAILVTGATGKLGQRVVNRLLQKQAKVRVLTRRREDALKLWGDSVDIAEGNFSDPASLKGASRDVDRVFLLSPIGKTLAADQNAVVDAALSAGVSQIVKLSGSDWTLKNAARSISGTAHAAVEKHLAETGIAHTVLRPNAWMQVALEPVVAALRNGEDVPARFGNAAVSFIDADDIADVAVEALSASAPPAGTLVLTGHEALAALGIARIAARILHRPVGVSHQSASTFPAHIGGFEQKAIAEFGQLIGEGLAASTTDIVEQIIGHPPRSVENYLRARLAVAQQGDHSEGEKTWR | failed
15 | MINRDFIISFIVVTCIIYLIYVCYGKYLEKKQIYLKTLTIFLIIEVLRRIFIYGKVNNRLISGLSFIQLIFLGISVAMYGLMYFKNNLS | failed
16 | MNYPAENFTKRFLSSLAQVMLQSNTVTGFLFLVGIGLNSPTMLLGCILAILSSLAVAKLFQYDSNCVTKGFYGFNAALVGIAVFSLLPLSFISLVLVLLGGAFSALLMHVMITKIPSIPALTTPFILSTWTIVLIIDSVGLADPMSGSFTGSISPTLIDSLHGVLRGVGQVMLQDSWLSGAVFCCALLFSSYKTAVWAILGSLIGLLVATTFGFSQEKAMMGLYGFNGCLVAIALVDRYPNKYWLIILAILFSVLFTRVFEMIAIPAFTAPFVMTTWLMIGIVKLKADFD | failed
17 | ARYYQHNAIEAVLEAISQGKNRMLLTLATGTGKTFIAFQLAWKLFQAKWNISGEPTHRPRILFLADRNILANQAFNAFGAFDDDALVRIDPKEIKKKGKVPKNGSLFFSIFQTFMTTKGDKDFAHFYDYAPDFFDFIIIDECHRGGANDESTWRKILEYFSPAVQLGLTATPKRDVNGDTYKYFGEPLYTYSLKEGINDGYLTPFKVVQFTTTLDEYLYDPDDDVIEGDIDEARTYEEKDFNRIIEMEEREKQRVQLFMEAINQNEKTLVFCATQDHALAVRDLINQMKISTDPNYCVRVTANDGSIGETNLKTFQDNEKAIPTILTTSRKLSTGVDARNVRNIVLLRPINSMIEFKQIIGRGTRLFDNKDYFTIYDFVRAYEHFNDDEWDGEPTEPVAIDPEPRKEREKIDLDLEDEPEENRKPQKIKVKLADGKERELAHTQTTTFWDADGKPISAQEFIEKLFGDLPDLFKDEAELRTIWGKPDTRKSFLTGLAE | failed
18 | MSMSSIPSSSPGGKRYGWVEKIGNKVPHPFLLFIYLIAVLIAATAILSALNVGVQNPTDGSRVVVKNLLSVEGLHWFLPNVIKNFSGFAPLGAILALVLGAGFAERVGLLPALMVKMASHVSARYASYMVLFIAFFSHISSDAALVIMPPLGALMFLAVGRHPVAGLLAAIAGVGCGFTANLLIVTTDVLLSGISTEAAKSIDASLHVSVIDNWYFMATSVIVLTLVGGLITDKLVEPRLGQWQGSRDEKLQTLTPAERFGLRIAGVATLVFVAVIALMVVPENGILRDPVQHTVMPSPFIKGIVPLIIFFFFVVSLAYGIATGKIRRQADLPQLMIEPMKEMAGFIVMVFPLAQFVAMFNWSNMGKFMAVGLTDLLESSGMNGVPAFVGLALLSAFLCMFIASGSAIWSILAPIFVPMFMLLGFHPAFAQILFRIADSSVLPLAPVSPFVPLFLGFLQRYRPDARLGTYYSLVLPYPLIFLAVWLLLLVGWYLVGLPIGPGIYPRLS | failed
19 | GSSGSSGMCGRFAQSQTREDYLALLAEDIERDIPYDPEPIGRYNVAPGTKVLLLSERDEHLHLDPVFWGYAPGWWDKPPLINARVETAATSRMFKPLWQHGRAICFADGWFEWKKEGDKKQPFFIYRADGQPIFMAAIGSTPFERGDEAEGFLIVTAAADQGLVDIHDRRPLVLSPEAAREWMRQEISGKEASEIAASGCVPANQFSWHPVSRAVGNVKNQGAELIQPV | not failed
20 | SLANIREIAKRAGISIATVSRHLNNTGYVSEDAREKIQKVVDELNYTPNALARAMFTKNSKTIGLMVPNISNPFFNQMASVIEEYAKNKGYTLFLCNTDDDKEKEKTYLEVLQSHRVAGIIASRSQCEDEYANIDIPVVAFENHILDNIITISSDNYNGGRMAFDHLYEKGCRKILHIKGPEVFEATELRYKGFLDGARAKDLEIDFIEFQHDFQVKMLEEDINSMKDIVNYDGIFVFNDIAAATVMRALKKRGVSIPQEVQIIGFDNSFIGELLYPSLTTINQPIEALAYTIIELLIKIINGEGVLIEDYIMEVKLIERETTISLKDEG | not failed
21 | MNDFSLELPVRTNKPRETGQSILIDNGYPLQFFKDAIAGASDYIDFVKFGWGTSLLTKDLEEKISTLKEHDITFFFGGTLFEKYVSQKKVNEFHRYCTYFGCEYIEISNGTLPMTNKEKAAYIADFSDEFLVLSEVGSKDAELASRQSSEEWLEYIVEDMEAGAEKVITEARESGTGGICSSSGDVRFQIVDDIISSDIDINRLIFEAPNKTLQQGFIQKIGPNVNLANIPFHDAIALETLRLGLRSDTFFL | not failed
